Results reported in patent US20120076728A1 (University of California, published 2012).
No end group written: not given here.

T1: carcinoembryonic antigen (CEA), form not stated (UniProt P06731 35-685, limits assumed)
T1 sequence (looked up): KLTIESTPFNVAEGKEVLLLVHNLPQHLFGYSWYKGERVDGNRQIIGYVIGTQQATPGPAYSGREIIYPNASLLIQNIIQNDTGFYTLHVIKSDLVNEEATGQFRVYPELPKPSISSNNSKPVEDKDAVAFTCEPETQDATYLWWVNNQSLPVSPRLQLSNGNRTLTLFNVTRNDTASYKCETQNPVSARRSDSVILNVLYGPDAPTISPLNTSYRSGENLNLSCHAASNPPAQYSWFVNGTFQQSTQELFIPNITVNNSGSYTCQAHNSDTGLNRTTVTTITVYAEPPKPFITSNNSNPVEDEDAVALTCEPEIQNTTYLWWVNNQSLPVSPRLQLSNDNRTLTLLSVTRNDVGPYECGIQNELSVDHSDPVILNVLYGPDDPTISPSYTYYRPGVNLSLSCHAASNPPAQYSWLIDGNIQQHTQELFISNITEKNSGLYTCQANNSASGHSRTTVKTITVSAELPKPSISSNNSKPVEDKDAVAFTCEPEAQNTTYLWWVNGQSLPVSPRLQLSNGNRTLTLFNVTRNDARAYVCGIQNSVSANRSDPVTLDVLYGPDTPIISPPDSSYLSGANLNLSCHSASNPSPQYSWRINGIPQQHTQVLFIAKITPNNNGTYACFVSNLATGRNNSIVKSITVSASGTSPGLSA


What was measured:
[1] = target: carcinoembryonic antigen (CEA) expressed by LS174T human colon carcinoma tumors (human (LS174T human colon carcinoma cells)) (UniProt P06731); experiment: cell-based or functional assay
[2] = target: T1, carcinoembryonic antigen (CEA), form …; experiment: not stated; given as a property of the peptide

| CEA positive-to-negative tumor uptake ratio at 51 h [1] | Kd [2] [nM] | Molecule |
| --- | --- | --- |
| 13 |  | anti-CEA T84.66 diabody (Db) |
|  | 160 | SDWVCEFIKSQWFCNVLASG-HyNic (also: cyclic, bond type and places not given here, also called anti-CEA peptide; CEA specific peptide) [CEA specific, cyclic peptide SDWVCEFIKSQWFCNVLASG] |
